# Laboratory results from the RNAGym collection of RNA variant scans (doi:10.1093/nar/gkz1192).
# B1: CPEB3 Ribozyme (parent)
# chain: UAACAGGGGGCCACAGCAGAAGCGUUCACGUCGCAGCCCCUGUCAGAUUCUGGUGAAUCUGCGAAUUCUGCUGUAUAUCUC
# Variants of: B1
# Assay: self-cleavage, relative activity (ratio to wild type); higher = more cleavage; in vitro, sequencing
# Outline: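 Libraries of CPEB3 self-cleaving ribozyme mutants came from rounds of error-prone PCR and carried barcodes, which DNA sequencing matched to variants. In vitro transcription used T7 RNA polymerase at 37°C for 5 hours, with a further 15 min in DNase I before EDTA stopped the reaction; the ribozymes cleaved during both steps. The RNA was reverse transcribed with template switching and sequenced on Illumina. Relative activity is the cleaved/total read fraction of a variant divided by that of the unmutated ribozyme, averaged over three batches with at least 5 reads.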
row,Variant,self-cleavage
1,A18C U48C,0.25
2,A18C U48A,0.2
3,G19A A65G,0.51
4,A18U,0.4
5,A18G,0.71
6,A18G G42U,0.27
7,A18G A20U,0.27
8,A18G A20G,0.49
9,A18G A45G,0.46
10,A18G A45C,0.3
11,A18G A45U,0.35
12,A18U C38U,0.31
13,A18G A77U,0.78
14,A18G A77G,0.78
15,A18G A77C,0.39
16,A18G C39A,0.47
17,A18G C39G,0.21
18,A18G C39U,0.52
19,A18U U78A,0.36
20,A18U U78C,0.38
21,A18C U67C,0.18
22,A18G U54A,0.8
23,A18G U54G,0.36
24,A18G U54C,0.57

row,Variant,self-cleavage
1,A18U U41A,0.22
2,A18U U41C,0.38
3,A18U G19A,0.15
4,A18U G19C,0.23
5,A18U G19U,0.21
6,A18U A65U,0.2
7,A18U A65G,0.28
8,G19A A75G,0.09
9,A18G U67C,0.26
10,A18G U67G,0.28
11,A18G U67A,0.31
12,A18G U69C,1.18
13,A18G U69G,0.49
14,A18G U69A,0.48
15,A18U U26G,0.07
16,A18U U26C,0.26
17,A18U U26A,0.31
18,A18C U80A,0.54
19,A18C U80C,0.54
20,A18U U51A,0.41
21,A18U U51C,0.42
22,A18U A77G,0.51
23,A18U A77U,0.48
24,A18U A56U,0.31

row,Variant,self-cleavage
1,A18U A56G,0.3
2,A18U A56C,0.21
3,A18G G36C,0.13
4,A18G G36A,0.31
5,A18G G24A,0.15
6,A18G G24C,0.28
7,A18G C34U,0.15
8,A18G C34G,0.08
9,A18U G30A,0.15
10,A18U G30U,0.17
11,A18C U78C,0.4
12,A18G U43G,0.36
13,A18G U43C,0.35
14,A18G U43A,0.72
15,A18G C59U,0.43
16,A18G C59G,0.25
17,A18G C59A,0.23
18,A18C U51A,0.42
19,A18C U51C,0.36
20,A18G G33U,0.19
21,A18G G33A,0.23
22,A18C U69C,0.35
23,A18C U69A,0.52
24,A18U U54A,0.54

row,Variant,self-cleavage
1,A18U U54G,0.34
2,A18U U54C,0.32
3,G19A,0.29
4,A18U C32A,0.17
5,A18U C32U,0.08
6,A18U C32G,0.17
7,A18G C81A,0.55
8,A18G G73A,1.24
9,A18U U49C,0.22
10,A18U U49A,0.38
11,A18G C38U,0.73
12,A18U C34A,0.23
13,A18U C34U,0.25
14,A18U U31C,0.26
15,A18U U31G,0.17
16,A18U U31A,0.3
17,A18U G52A,0.39
18,A18U G52U,0.39
19,A18G C71U,0.28
20,A18G C71A,0.29
21,A18G C71G,0.27
22,A18U G53A,0.56
23,A18U G53U,0.45
24,A18U U48C,0.28

row,Variant,self-cleavage
1,A18U U48A,0.19
2,A18U G73C,0.49
3,A18U G73A,0.61
4,A18G A65G,0.34
5,A18G A65U,0.38
6,A18U C39U,0.3
7,A18U C39A,0.24
8,A18U C40A,0.13
9,A18U C40U,0.45
10,A18U C40G,0.18
11,A18G C23A,0.26
12,A18G C23G,0.61
13,A18G C23U,0.12
14,A18G U80A,0.9
15,A18G U80C,0.86
16,A18G G52A,0.82
17,A18G G52C,0.94
18,A18G G52U,0.83
19,A18G C62U,0.32
20,A18G C62A,0.23
21,A18G C62G,0.13
22,A18G U51G,0.77
23,A18G U51C,0.48
24,A18G U51A,0.74

row,Variant,self-cleavage
1,A18G A75U,0.82
2,A18G A75G,0.57
3,A18G A75C,0.91
4,A18C U72G,0.12
5,A18C U72A,0.16
6,A18C U72C,0.46
7,A18G A56C,0.25
8,A18G A56G,0.55
9,A18G A56U,0.35
10,A18U G33A,0.3
11,G19A C32A,0.08
12,A18U G46U,0.2
13,A18G C32A,0.15
14,A18G C32G,0.1
15,A18G C32U,0.2
16,A18U U80A,0.53
17,A18U U80G,0.51
18,A18U U80C,0.52
19,A18U G55A,0.29
20,A18U G55U,0.41
21,A18C U60C,0.28
22,A18C U60A,0.23
23,A18U G42A,0.36
24,A18U G42C,0.18

row,Variant,self-cleavage
1,A18C U41C,0.34
2,A18C U41G,0.53
3,A18U A35U,0.22
4,A18U A35C,0.34
5,A18U A35G,0.7
6,A18C U58A,0.21
7,A18C U58C,0.3
8,G19A A20U,0.11
9,A18U A64G,0.31
10,A18U A64U,0.28
11,A18U C81U,0.51
12,A18U C81G,0.27
13,A18U C81A,0.69
14,A18U A75U,0.5
15,A18U A75G,0.38
16,A18U U66A,0.29
17,A18U U66C,0.29
18,A18C U66C,0.21
19,A18U C23A,0.1
20,A18U C23G,0.22
21,A18U C23U,0.23
22,G19A A35U,0.17
23,A18U A21U,0.28
